According to IntAct's records for PubMed 29039417:

B1: Protein PTHB1 (Homo sapiens), Q3SYG4 (parent)
chain: MSLFKARDWWSTILGDKEEFDQGCLCLANVDNSGNGQDKIIVGSFMGYLRIFSPHPAKTGDGAQAEDLLLEVDLRDPVLQVEVGKFVSGTEMLHLAVLHSRKLCVYSVSGTLGNVEHGNQCQMKLMYEHNLQRTACNMTYGSFGGVKGRDLICIQSMDGMLMVFEQESYAFGRFLPGFLLPGPLAYSSRTDSFLTVSSCQQVESYKYQVLAFATDADKRQETEQQKLGSGKRLVVDWTLNIGEQALDICIVSFNQSASSVFVLGERNFFCLKDNGQIRFMKKLDWSPSCFLPYCSVSEGTINTLIGNHNNMLHIYQDVTLKWATQLPHIPVAVRVGCLHDLKGVIVTLSDDGHLQCSYLGTDPSLFQAPNVQSRELNYDELDVEMKELQKIIKDVNKSQGVWPMTEREDDLNVSVVVSPNFDSVSQATDVEVGTDLVPSVTVKVTLQNRVILQKAKLSVYVQPPLELTCDQFTFEFMTPDLTRTVSFSVYLKRSYTPSELEGNAVVSYSRPTDRNPDGIPRVIQCKFRLPLKLICLPGQPSKTASHKITIDTNKSPVSLLSLFPGFASQSDDDQVNVMGFHFLGGARITVLASKTSQRYRIQSEQFEDLWLITNELILRLQEYFEKQGVKDFACSFSGSIPLQEYFELIDHHFELRINGEKLEELLSERAVQFRAIQRRLLARFKDKTPAPLQHLDTLLDGTYKQVIALADAVEENQGNLFQSFTRLKSATHLVILLIALWQKLSADQVAILEAAFLPLQEDTQELGWEETVDAAISHLLKTCLSKSSKEQALNLNSQLNIPKDTSQLKKHITLLCDRLSKGGRLCLSTDAAAPQTMVMPGGCTTIPESDLEERSVEQDSTELFTNHRHLTAETPRPEVSPLQGVSE
partner: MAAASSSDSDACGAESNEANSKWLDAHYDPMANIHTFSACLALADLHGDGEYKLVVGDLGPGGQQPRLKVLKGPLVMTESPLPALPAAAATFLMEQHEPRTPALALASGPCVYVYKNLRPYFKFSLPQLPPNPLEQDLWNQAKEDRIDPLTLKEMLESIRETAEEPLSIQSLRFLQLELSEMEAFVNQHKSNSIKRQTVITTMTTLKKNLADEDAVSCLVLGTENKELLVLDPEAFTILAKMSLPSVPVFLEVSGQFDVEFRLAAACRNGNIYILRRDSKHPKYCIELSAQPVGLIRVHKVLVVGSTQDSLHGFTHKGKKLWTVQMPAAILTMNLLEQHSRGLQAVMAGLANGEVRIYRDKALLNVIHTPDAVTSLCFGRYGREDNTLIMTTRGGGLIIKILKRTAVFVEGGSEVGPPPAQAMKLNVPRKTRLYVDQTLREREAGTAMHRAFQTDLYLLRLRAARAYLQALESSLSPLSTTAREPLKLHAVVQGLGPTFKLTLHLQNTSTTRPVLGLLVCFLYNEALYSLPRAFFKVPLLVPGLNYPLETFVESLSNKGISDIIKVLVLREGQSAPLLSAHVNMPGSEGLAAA

Variants of: B1
Details: with bbs1_human BBS1, Q8NFJ9

Variant | effect of a mutation on the interaction
Q760E | with no effect
A633E | with no effect
V506E | with no effect
L665A | with no effect
R674P | disrupting interaction strength
D517A | with no effect
P875A | with no effect
K781E | with no effect
P511A | with no effect
T496K | with no effect
L795K | with no effect
A592K | with no effect
A592E | with no effect
R514A | with no effect
L591K | with no effect
Q672K | with no effect
L529K | with no effect
L529E | with no effect
N719A | with no effect
S820A | with no effect
Q693E | with no effect
N796E | with no effect
Q574K | with no effect

Variant | effect of a mutation on the interaction
Q574A | with no effect
E668K | with no effect
L452K | with no effect
E644K | with no effect
T805A | with no effect
I588E | with no effect
F653K | with no effect
Y645K | with no effect
F606A | with no effect
F606K | with no effect
H811K | with no effect
S507K | with no effect
S507A | with no effect
V838K | disrupting interaction strength
V505K | with no effect
L411E | with no effect
T725E | with no effect
L609K | with no effect
L609E | with no effect
D850E | with no effect
G628A | with no effect
G823A | with no effect
L784K | with no effect

Variant | effect of a mutation on the interaction
E753K | disrupting interaction strength
T405K | with no effect
A690T | disrupting interaction strength
L780A | with no effect
R521T | disrupting interaction strength
V713K | with no effect
L793K | with no effect
L481K | with no effect
V772A | with no effect
C535A | with no effect
S555A | with no effect
L759E | with no effect
H778A | with no effect
H778K | with no effect
H869A | with no effect
H869K | with no effect
S414A | with no effect
V417K | with no effect
A682E | with no effect
R493K | with no effect
L662A | with no effect
R483E | with no effect
R483K | with no effect

Variant | effect of a mutation on the interaction
G433A | with no effect
H652E | with no effect
K454E | with no effect
H867E | with no effect
L819E | with no effect
H651T | disrupting interaction strength
T512K | with no effect
P840A | with no effect
F421A | with no effect
K809A | with no effect
I601K | with no effect
Y623A | with no effect
R528E | with no effect
V459K | with no effect
G502K | with no effect
G502E | with no effect
T865E | with no effect
S828K | with no effect
N794A | with no effect
R449E | with no effect
T428K | with no effect
F472A | with no effect
P689K | with no effect

Variant | effect of a mutation on the interaction
Q764E | with no effect
K456E | with no effect
R598A | with no effect
T613I | disrupting interaction strength
T613K | with no effect
R678E | with no effect
R678A | with no effect
L618K | with no effect
V706A | with no effect
V706K | with no effect
D409E | with no effect
T543E | with no effect
T543A | with no effect
Q858A | with no effect
P847E | with no effect
E887A | with no effect
L536E | with no effect
S568A | with no effect
S568G | disrupting interaction strength
V879E | with no effect
G842A | with no effect
A774E | with no effect
E715K | with no effect

Variant | effect of a mutation on the interaction
V671A | with no effect
R587K | with no effect
H732K | with no effect
S639A | with no effect
N866E | with no effect
E848A | with no effect
E848K | with no effect
I812A | with no effect
F724A | with no effect
A775T | disrupting interaction strength
Y508E | with no effect
Y508A | with no effect
G701R | disrupting interaction strength
C634A | with no effect
T874E | with no effect
A833K | with no effect
P758A | with no effect
R824K | with no effect
P556A | with no effect
P881A | with no effect
I776K | with no effect
C469Y | disrupting interaction strength
Q835E | with no effect

Variant | effect of a mutation on the interaction
E625A | with no effect
S788A | with no effect
Y599A | with no effect
D608E | with no effect
D608K | with no effect
Q742L | disrupting interaction strength
K789E | with no effect
G884E | with no effect
P530E | with no effect
T782A | with no effect
S545A | with no effect
S545E | with no effect
V489A | with no effect
T589K | with no effect
M578K | with no effect
P479E | with no effect
E862K | with no effect
A544K | with no effect
I550K | with no effect
E660A | with no effect
T482E | with no effect
T482A | with no effect
F864A | with no effect

Variant | effect of a mutation on the interaction
F624E | with no effect
V629E | with no effect
S723K | with no effect
T595K | with no effect
S458A | with no effect
Q705A | with no effect
Q705E | with no effect
L436A | with no effect
I451K | with no effect
T552A | with no effect
L727K | with no effect
T441A | with no effect
T441K | with no effect
P540A | with no effect
I612A | with no effect
S561K | with no effect
Q722E | with no effect
A750E | with no effect
S886K | with no effect
V485K | with no effect
I617A | with no effect
